From US20230340087A1 (published 2023)

B1: AA6 VHH peptide monomer (VHH)
VHH: QLQLVETGGGLVQPGGSLRLSCAASGFTFSDYVMTWVRQAPGKGPEWIATINTDGSTMRDDSTKGRFTISRDNAKNTLYLQMTSLKPEDTALYYCARGRVISASAIRGAVRGPGTQVTVSS
B2: ABAB binding agent (AH3/5D/AA6/E3), tetra-specific, tetrameric VHH binding agent (designed binder)
chain: QVQLVETGGGLVQPGGSLRLSCAASGFTLDYSSIGWFRQAPGKEREGVSCISSSGDSTKYADSVKGRFTTSRDNAKNTVYLQMNSLKPDDTAVYYCAAFRATMCGVFPLSPYGKDDWGKGTLVTVSSGGGGSGGGGSGGGGSQVQLVESGGGLVQPGGSLRLSCEASGFTLDYYGIGWFRQPPGKEREAVSYISASARTILYADSVKGRFTISRDNAKNAVYLQMNSLKREDTAVYYCARRRFSASSVNRWLADDYDVWGRGTQVAVSSGGGSGGGSGGGSGGGSQLQLVETGGGLVQPGGSLRLSCAASGFTFSDYVMTWVRQAPGKGPEWIATINTDGSTMRDDSTKGRFTISRDNAKNTLYLQMTSLKPEDTALYYCARGRVISASAIRGAVRGPGTQVTVSSGGGGSGGGGSGGGGSQVQLVESGGGLVQTGGSLRLSCASSGSIAGFETVTWSRQAPGKSLQWVASMTKTNNEIYSDSVKGRFIISRDNAKNTVYLQMNSLKPEDTGVYFCKGPELRGQGIQVTVSS
notes: also called r-ABAB; recombinant ABAB

Biological target: T1, Clostridium difficile toxin A (TcdA) (Clostridium difficile, UniProt P16154 1-2710)
T1 construct: also called TxA; rTcdA
Experiment: binding kinetics, method not stated

T1 sequence (P16154 whole entry): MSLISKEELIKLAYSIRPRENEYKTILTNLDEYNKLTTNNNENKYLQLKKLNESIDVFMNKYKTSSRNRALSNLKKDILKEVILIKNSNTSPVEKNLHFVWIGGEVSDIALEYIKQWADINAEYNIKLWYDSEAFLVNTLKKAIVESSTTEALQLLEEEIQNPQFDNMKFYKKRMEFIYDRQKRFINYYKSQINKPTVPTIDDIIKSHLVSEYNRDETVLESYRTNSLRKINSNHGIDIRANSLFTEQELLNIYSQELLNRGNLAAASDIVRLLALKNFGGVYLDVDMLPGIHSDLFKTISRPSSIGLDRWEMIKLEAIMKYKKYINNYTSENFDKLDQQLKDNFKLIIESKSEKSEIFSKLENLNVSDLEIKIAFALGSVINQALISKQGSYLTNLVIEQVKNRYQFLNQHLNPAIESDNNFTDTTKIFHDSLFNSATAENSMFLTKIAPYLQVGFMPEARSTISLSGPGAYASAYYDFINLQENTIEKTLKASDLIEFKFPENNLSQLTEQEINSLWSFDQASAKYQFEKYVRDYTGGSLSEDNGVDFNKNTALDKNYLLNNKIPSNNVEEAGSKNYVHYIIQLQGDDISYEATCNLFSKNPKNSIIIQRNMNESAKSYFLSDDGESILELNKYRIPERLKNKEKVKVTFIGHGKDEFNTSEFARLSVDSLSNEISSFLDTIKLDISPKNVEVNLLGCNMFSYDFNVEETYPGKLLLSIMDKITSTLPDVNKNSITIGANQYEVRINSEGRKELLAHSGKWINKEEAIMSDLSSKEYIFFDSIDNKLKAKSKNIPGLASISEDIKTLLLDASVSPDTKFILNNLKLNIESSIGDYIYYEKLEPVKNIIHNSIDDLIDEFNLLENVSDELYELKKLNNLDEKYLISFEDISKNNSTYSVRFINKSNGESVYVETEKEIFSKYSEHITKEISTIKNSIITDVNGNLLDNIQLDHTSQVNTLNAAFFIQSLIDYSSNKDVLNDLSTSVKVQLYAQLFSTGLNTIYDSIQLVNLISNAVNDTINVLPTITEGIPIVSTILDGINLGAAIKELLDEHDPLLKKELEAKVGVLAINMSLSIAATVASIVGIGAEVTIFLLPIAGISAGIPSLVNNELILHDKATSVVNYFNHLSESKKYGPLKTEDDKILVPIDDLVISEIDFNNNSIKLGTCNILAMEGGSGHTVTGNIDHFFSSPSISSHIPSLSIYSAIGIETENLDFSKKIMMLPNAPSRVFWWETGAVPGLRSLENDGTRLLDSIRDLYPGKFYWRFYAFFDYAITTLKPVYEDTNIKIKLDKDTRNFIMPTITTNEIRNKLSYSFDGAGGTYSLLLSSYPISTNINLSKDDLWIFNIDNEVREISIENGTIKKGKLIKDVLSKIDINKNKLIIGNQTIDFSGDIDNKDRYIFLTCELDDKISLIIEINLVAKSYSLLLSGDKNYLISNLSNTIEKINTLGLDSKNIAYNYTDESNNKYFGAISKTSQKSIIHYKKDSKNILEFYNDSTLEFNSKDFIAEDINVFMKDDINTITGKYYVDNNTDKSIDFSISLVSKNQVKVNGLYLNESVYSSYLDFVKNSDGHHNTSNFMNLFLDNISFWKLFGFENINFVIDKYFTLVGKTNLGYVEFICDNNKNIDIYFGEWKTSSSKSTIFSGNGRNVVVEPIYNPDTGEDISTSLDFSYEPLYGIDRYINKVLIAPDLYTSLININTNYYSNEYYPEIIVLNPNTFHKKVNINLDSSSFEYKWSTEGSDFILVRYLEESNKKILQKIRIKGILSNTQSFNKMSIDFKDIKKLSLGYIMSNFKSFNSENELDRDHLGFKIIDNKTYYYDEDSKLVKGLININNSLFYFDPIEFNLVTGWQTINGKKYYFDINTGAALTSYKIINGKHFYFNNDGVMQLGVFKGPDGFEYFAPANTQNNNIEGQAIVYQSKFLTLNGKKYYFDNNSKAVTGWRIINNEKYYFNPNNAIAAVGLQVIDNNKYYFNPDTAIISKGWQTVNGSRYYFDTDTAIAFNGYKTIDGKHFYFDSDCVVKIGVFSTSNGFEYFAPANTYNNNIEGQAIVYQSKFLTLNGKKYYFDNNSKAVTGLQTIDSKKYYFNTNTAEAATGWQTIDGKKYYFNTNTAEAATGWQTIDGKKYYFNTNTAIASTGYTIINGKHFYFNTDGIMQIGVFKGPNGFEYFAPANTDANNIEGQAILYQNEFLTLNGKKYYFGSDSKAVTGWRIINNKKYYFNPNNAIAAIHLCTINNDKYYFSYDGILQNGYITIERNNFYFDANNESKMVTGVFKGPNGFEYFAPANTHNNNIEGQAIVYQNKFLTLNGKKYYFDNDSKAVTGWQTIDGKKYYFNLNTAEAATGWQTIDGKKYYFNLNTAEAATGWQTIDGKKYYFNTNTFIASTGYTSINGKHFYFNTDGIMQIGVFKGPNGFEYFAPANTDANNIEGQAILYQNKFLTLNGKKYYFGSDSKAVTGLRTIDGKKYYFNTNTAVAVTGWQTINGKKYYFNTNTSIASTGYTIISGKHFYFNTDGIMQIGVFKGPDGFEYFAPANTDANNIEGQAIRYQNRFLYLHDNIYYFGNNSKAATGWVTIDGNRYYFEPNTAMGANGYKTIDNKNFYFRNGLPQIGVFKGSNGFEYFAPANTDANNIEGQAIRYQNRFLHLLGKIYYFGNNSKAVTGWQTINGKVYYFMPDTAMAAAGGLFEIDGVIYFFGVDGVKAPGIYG

| Binder | Kd | koff | kon |
| --- | --- | --- | --- |
| B1 | 19.7 nM | 0.000692 s⁻¹ | 35200 M⁻¹ s⁻¹ |
| B2 | 0.002 nM | 1.21e-06 s⁻¹ | 696000 M⁻¹ s⁻¹ |
